Source: the supplement of paper PMC10567573

B1: MATN2 (parent)
chain: FIVDILQFLDIGPDVTRVGLLQYG
B2: SNURF (parent)
chain: QVPVVDFQAELRQAFLAETPRGG

Variants of: B1
Test: protein stability index of a GFP-peptide fusion (GPS, HEK-293T) (PSI 1-6); higher = more stable
Conditions: c terminus: a fixed tail appended
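Further: lentivirally expressed fusions sorted by FACS into six bins by GFP to DsRed ratio, PSI derived from sequencing read proportions per bin multiplied by bin number.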

Protein stability index, by site and new letter:
L9: E 1.72 | D 2.93 | A 1.79 | F 3.76
V18: S 3.5 | K 2.05 | M 2.55 | D 2.04 | N 2.16
F8: G 4.33 | T 3.44 | P 2.96 | S 2.12 | V 2.94 | C 2.21 | Q 2.49 | L 2.43 | K 1.06
P13: W 2.61 | V 2.93 | S 2.69 | F 1.91 | H 2.73 | Q 4 | A 3.91 | E 2.72
I11: Q 2.77 | Y 3.28 | L 2.53 | K 3.5 | C 1.18 | T 2.8 | S 2.12 | M 3.73
G24: W 3.04 | R 2.18 | E 1.99 | A 2.27 | K 1.81
Q22: K 2.98 | V 3.57 | Y 4.14 | F 3.25 | N 1.93 | M 2.53 | G 3.55 | S 3.08 | A 2.48
Q7: H 1.98 | D 3.01 | T 3.12 | C 2.24 | P 2.12 | S 2.27 | K 3.78 | E 3.38 | A 3.4
Y23: L 1.84 | M 2.75 | T 3.99 | R 3.61
G19: E 3.93 | H 3.51 | T 3.15 | P 2.58 | A 2.26 | V 2.69 | Q 2.7 | I 2.67
D10: L 2.62 | E 3.48 | R 3.54 | T 3.42 | W 2.66
G12: T 3.93 | S 2.61 | L 2.63 | H 3.69 | R 4.05 | N 3.36 | M 2.11 | I 2.79 | F 1.9 | D 2.56 | C 2.76
F1: W 2.01 | P 1.15 | E 2.04 | N 2.54 | Y 2.36 | K 2.46
L6: W 3.3 | P 1.3 | R 3.41 | Y 2.87 | F 2.17 | H 3.78
D4: Q 2.72 | E 2.88 | K 2.12 | L 2.53 | H 4.41 | C 2.67
R17: A 3.59 | I 2.77 | F 2.23 | S 1.03 | G 2.07 | N 2.75 | V 3.47
D14: E 4.71 | N 3.04 | P 3.06
V15: M 4.35 | P 3.2 | Y 3.39 | W 2.06 | I 2.16 | F 3.1 | A 2.88 | D 4.47
I2: T 1.4 | R 2.35 | Y 3.07 | G 3.67
T16: G 2.19 | Y 4.05 | P 2.42 | W 3.52 | D 2.7 | L 3.03
V3: H 4.66 | Y 2.5 | K 2.6 | W 3.32
L20: G 3.72 | A 2.25 | W 3.97 | H 2.86 | V 4 | C 1.87
L21: F 2.62 | C 3.73 | I 2.79 | S 2.57 | A 2.8 | P 4.3 | W 3.27 | G 3.3 | T 2.95 | K 2.13
I5: D 3.18 | F 3.88 | E 3.96 | A 1.44 | V 3.23 | Q 1.81

Variants of: B2
Test: as above
Conditions: c terminus: native

Protein stability index of substitutions, site by site:
P20: Y 3.23 | W 3.74 | A 3 | C 1.59 | I 3.38 | F 2.27 | K 2.19
F15: E 2.82 | R 1.95 | G 3.47
